The values that follow come from patent US20080194485A1, “Detection and Use of Prolylcarboxypeptidase” (YALE UNIVERSITY, priority 2004, published 2008).

This assay addresses recombinant PRCP51 (recombinant human prolylcarboxypeptidase, predicted molecular mass 51 kDa) (human) (UniProt P42785). As to the kind of experiment: cell-based or functional assay.

Sequence of recombinant PRCP51 (recombinant human prolylcarboxypeptidase, predicted molecular mass 51 kDa) (human) (P42785 46-496 limits assumed): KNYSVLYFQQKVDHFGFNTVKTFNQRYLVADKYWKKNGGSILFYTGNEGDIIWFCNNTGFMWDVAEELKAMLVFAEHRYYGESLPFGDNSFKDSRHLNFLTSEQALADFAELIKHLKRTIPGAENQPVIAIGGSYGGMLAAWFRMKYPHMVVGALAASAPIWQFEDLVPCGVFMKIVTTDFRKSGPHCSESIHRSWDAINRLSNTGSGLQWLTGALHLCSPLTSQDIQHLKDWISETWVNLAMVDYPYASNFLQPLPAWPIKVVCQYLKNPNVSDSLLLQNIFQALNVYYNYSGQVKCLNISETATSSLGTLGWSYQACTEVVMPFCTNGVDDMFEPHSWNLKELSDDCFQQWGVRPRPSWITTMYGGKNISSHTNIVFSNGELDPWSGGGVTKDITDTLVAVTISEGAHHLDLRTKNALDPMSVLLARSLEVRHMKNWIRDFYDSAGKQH

As to “angiotensinogen II (AgII) (from UniProt P01019 25-32) (peptide)”, the inhibition of rPRCP51-induced prekallikrein (PK) activation (residual kallikrein activity on S2302), IC50 was 150 µM.
